target: T1, HLA-E (HLA-E*01033-transfected K562) (Homo sapiens, UniProt P13747); test: Peptide-HLA molecule binding assay (HLA-E stabilization); conditions: HLA-E Transfected K562 pulsed overnight at 26° C.
T1 construct: expressed in transfected cells; host or cells: K562 (K562/HLA-E, kept under G-418 selection)
Procedure: Peptide binding was assessed by HLA-E stabilization assays using HLA-E*01033-transfected derivative of K562 (K562/HLA-E) cell lines. Briefly, cells were re-suspended in serum-free medium at 1×10^6 cells/ml. Where appropriate, a peptide (see Table 1) was added. After overnight incubation at 26° C., cells were washed with PBS to remove free peptides. Next, HLA surface expression was monitored after staining with anti-HLA-E mAb. Analysis was done on a FACScalibur cytometer (BD Biosciences). Results are presented as the MFI of cells stained with anti-HLA-E mAb.

In order of rising “MFI (HLA-E surface expression, anti-HLA-E mAb)” value:
1. RIRTWKSLV (HIV-1 Pol derived peptide; MHCIb/E-binding antigen)  6580
2. PEIVIYDYM (HIV-1 Pol derived peptide; MHCIb/E-binding antigen)  7320
3. VMATRRNVL (MBt derived peptide) [reference compound]  7523
4. RMYSPVSIL (MHCIb/E-binding antigen)  8240
5. TALSEGATP (MHCIb/E-binding antigen)  8530
